# Data reported in article PMC3553500 (2013).
# B1: TRAF2 (protein)
# chain: AAASVTPPGSLELLQPGFSKTLLGTKLEAKYLCSACRNVLRRPFQAQCGHRYCSFCLASILSSGPQNCAACVHEGIYEEGISILESSSAFPDNAARREVESLPAVCPSDGCTWKGTLKEYESCHEGRCPLMLTECPACKGLVRLGEKERHLEHECPERSLSCRHCRAPCCGADVKAHHEVCPKFPLTCDGCGKKKIPREKFQDHVKTCGKCRVPCRFHAIGCLETVEGEKQQEHEVQWLREHLAMLLSSVLEAKPLLGDQSHAGSELLQRCESLEKKTATFENIVCVLNREVERVAMTAEACSRQHRLDQDKIEALSSKVQQLERSIGLKDLAMADLEQKVLEMEASTYDGVFIWKISDFARKRQEAVAGRIPAIFSPAFYTSRYGYKMCLRIYLNGDGTGRGTHLSLFFVVMKGPNDALLRWPFNQKVTLMLLDQNNREHVIDAFRPDVTSSSFQRPVNDMNIASGCPLFCPVSKMEAKNSYVRDDAIFIKAIVDLTGL
# Target: GAPDH (Homo sapiens, UniProt P04406)
# Sequence (P04406 2-335): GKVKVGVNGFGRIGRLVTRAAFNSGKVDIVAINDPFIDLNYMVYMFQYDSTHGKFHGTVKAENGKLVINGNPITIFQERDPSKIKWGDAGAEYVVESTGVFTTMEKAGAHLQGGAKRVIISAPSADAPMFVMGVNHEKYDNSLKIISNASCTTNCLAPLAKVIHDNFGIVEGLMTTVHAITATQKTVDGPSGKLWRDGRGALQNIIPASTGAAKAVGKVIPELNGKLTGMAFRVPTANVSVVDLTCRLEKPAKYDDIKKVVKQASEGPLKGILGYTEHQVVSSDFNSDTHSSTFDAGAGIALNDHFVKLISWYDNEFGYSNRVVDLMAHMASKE
# Experiment: ELISA
binder,measurement,value
B1,Kd,96 µM
